Assay: yeast display, Sf9 membrane polyspecificity reagent, FACS + sequencing; frameworks hold sequencing errors
In short: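 Polyreactivity labels are assigned by the sorting gate from which each nanobody was recovered. The gates were low and high (top ~1%), set on anti-HA fluorescence for expression and streptavidin fluorescence for reagent binding. Before sorting, galactose-induced (36–48 hours) yeast display cells were stained for 1 hour at 4 °C with 10% biotinylated, detergent-solubilized Sf9 membrane reagent.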

| Sequence | polyreactivity (PSR sort gate) |
| --- | --- |
| QVQLVESGGGLVQAGGSLRLSCAASGFIFYQYAMGWYRQAPGKERELVAAISTRGGSTYYADSVKGRFTISRDNAKNTVYLQMNSLKPEDTAVYYCNVLKYLSPGTYDYDYWGQGTQVTVSS | high polyreactivity |
| QVQLVESGGGLVQAGGSLRLSCAASGRIIASYAMGWNRHAPGKETELVAAISLSGGSTYYADSVKGRFTISRDNAKNTVYLQMNSLKPEDCAVYYCAAKNYRRYRDYYWGQGTQVSVSS | high polyreactivity |
| QDQLVESGGGLVQAGGRLRLSCAASGFIFWLYAMGWYRQAPGKERELVASINWSGGDTYYADSVKGRFTISRDNAKNTVYLQMNSLKPEDTAVYYCAADWSNLGAYDYWGQGTQVTVSS | low polyreactivity |
| QVQLVESWGALVQAGGSLRLSCAPSGSSKLMLWEGIDRRLGNKGSWLPLIVLVVLRNYADSVKGRFTISRDNAKNTLYLQMNSLKPDDTAVYYCAATPIGSGGWGDYWGQGTQVTLSS | low polyreactivity |
| QVQLVESGGGLVQAGGSLRLSCAASGRTLRRNTMGWYRQAPGKERELVAAISWSGGSTYYADSVKGRFTISRDNPKNTVYLQMNSLKPEDTAVYYCAKVPRIGSYEMGYWGQGTQVTVSS | high polyreactivity |
| QVQLVESGGGLVQAGGSLRLSCAASGRIIYPYALGWYRQAPGKERELVAAISSGSSTNYADSVKGRFTISRDNAKNTVYLQMNSLQPEDTAVYYCNADLVSGVVYDSDYWGQGTQVTVSS | low polyreactivity |
| QVQLVESGGGLVQAGGSLRLSCAASGLIFAEYAMGWYRQAPGKERELVARITSAGSTDYADSVKGRFTISRDNAKNTVYLQMNSLKPEDTAVYYCAARYYSQDKNASTASDFDYWGQGTQVTVSS | low polyreactivity |
| QVQLVESGGGLVQAVGSLRLSGAASGSIFQYTAMGRYRQAPGKERELVAAISSRGGIRYYADSVKGRFTISRDNAKYTVFLQMNSLKPEDTAVYYCAAEAYYSDVRWSEYWGQGTQVTVSS | high polyreactivity |
| QVQLVESGGGLVQAGGSLRLSCAASRFIFYSNAMGWYRTAPGKERELVASITGDGGTTYYADSVKGRFTISRDNAKNNVYLQMNSLKPEDTAVYYCAKDYIYRGYYTDFRYEDYDYWGQGTQVTVSS | low polyreactivity |
| QVQLVESGGGLVQAGGSLRLSCAASGFIFYGYTMGWYRQAPGKERELLARISRRGGSTYYADSVKGRFTISRDNAKNTVYLQMNSLKPEDTAVYYCATDDARRGYGYGYWGQGPQVTVSS | low polyreactivity |
| QVQLVESGGGIVQAGGSLRLSCAASGSTFTWYAMGLYRQAPGKERELVADISYGGGSTYYADSVKGRFTISRDNSKNTVYLQMNSLKPEDTAVYYCTALGAKGYVKGFDYWGQGTQVTVSS | low polyreactivity |
| QVQLVESGGGLVQAGGSLRLSCAASGFIFKGNAMGWYRQAPGKERELVAAITNRGGGTYYADSVKGRFTISRDNAKNTVYLQMNSLKPEDTAVYYCAKAYTRPFHPYDYWGQGTQVTVSS | high polyreactivity |
| QVQLVESGGGLVQAGGSLRLSCAASGSTFGSNAMGWYRQAPGKERELVAAIRWSGGSTYYADSVKGRFTISRDNAKNTVYLQMNSLKPEDTAVYYCAGSFFQYNRRFNYWVQGTQVTVSS | high polyreactivity |
| QDQLVESRGGLVQAGGSLRLSCAASGLIFPVYAMGWYRQAPRKEREFVASIWRGGTTYYADSVKGRFTISRDNAKNTVYLQMISLKPEDTAVYYCAAVVYSRGYYWGQGTQVTVSS | high polyreactivity |
| QVQLVESGGGLVQAGGSLRLSCAASGSTFTDYAMGWYRQAPGKERELVAAITKSGGSTYYADSVKGRFTISRDNAKNTVYLQMNSLKPEDTAVYYCAAGNHRRPADYGSWGQGTQVTVSS | low polyreactivity |
| QVQLVESGGGLVQAGGSLRLSCAASGSTFSHNAMGWYRQAPGKERELVAAISWSGGRTYADSVKGRFTISRDNAKNTVYLQMNSVKPDDTAVYYCNKVSYPSTSSSWFDYWGQGTQVTVSS | low polyreactivity |
| QVQLVESGGGLVQAGGSLRLSCSASGFTFEEYAMGWYRQAPGKERELVAAIDYTVGSTYYADSVKGRFTISRDNAKNTVYLQINSLKPEDTAVYYCNVDLSYSFNSAYGYWGQGTQVSVSS | low polyreactivity |
| QVHLVESGGGLVQAGGSLRLSCADSGLTFVFYAMGWYRPAPGKERELVAAISWSTGRTYYPDSVKGRFTISRDTAKNTVYLQMNSLNPEDSAVYYCAASYLGRKYVYWGQGTQVTVSS | high polyreactivity |
| QVQLVESGGGLVQAGGSLRLSCAASGSIFFYYAMGRYRQAPGKEMELVATINIGAGSTNYADSVKGRFTISRDNAKNTVYLQMNSLKPEDTAVYYCAADVNFYQDYIYLTDYDYWGQGTQVTVSS | low polyreactivity |
| QVQLVESGGGLVQAGGSLRLSCAASGIIFEGYAMGWYRQAPGKERELVATITSGGITYYADSVKGRFTISRDNAKNTVYLQMNSLKPEDTAVYYCAADNEDIGSEDSDYGYDYWGQGTQVTVSS | low polyreactivity |
| QGQLVESGGGLVQAGGSLRLSCAASGSIFYYNDMGWYRQAPGKEWELVATITNGGGTNYADSVKGRFTISRDNAKYTVYLQMNSLKPEDTAVYYCAADLWPTVTASGDLIVKFDYWGQGTQVTVSS | low polyreactivity |
| QVQLVESGGGLVQAGGSLRLRCAASGYTFRGNAMAWYSQAPGKERDLVAGISQTGGNTYYADSVKGRFTISRDNAKNTVYLQMNSLKPEDTAVYYCATTRRPYVRGYPHYYWGQGTEVTVSS | high polyreactivity |

| Sequence | polyreactivity (PSR sort gate) |
| --- | --- |
| QVQLVESGGGLVQAGGSLRLICAASGFIFFGNALGWYRQAPGKERELVAVITWSGGSTYADSVKGRFTISRDNAKNTVYLLMNSLKPEDTAVYYCAFVTPYWSFYEQVIPSNYWGQGTQVTVSS | low polyreactivity |
| QVQLVESGGGLVQAGGSLRLSCAASGRILGLYAMGWYRQAPGKESELVAAISRGGGSTYYADSLKGRFTISRDNAKNTVYLQMNSLKPEDTAVYYCATGLGYFSRLDYWGQGTQVTVSS | low polyreactivity |
| KLQLVESGRGLVQEGGSLRLSCAASGSTFGANAMGWYRHAPGKASEFVAAISRSGVRTYYADSVKGRFTISRDNAKNTVYLQMNSQKPEDTAVYYCAAYGYWWTYTRDDYWGQGTQGTVSS | low polyreactivity |
| QVQLEESVGGLVQAGRSLRLSCASSGTTFYYYALGWYRQAPGKERELVATIDSGTSTYYADSVKGRFTISRDNAKNTVYLQMNSLKPEDTAVYYCAAKTWSWSYGYNYWGQGTQVTVSS | low polyreactivity |
| QVQLVESGGGLVQAGGSLRLSCAASGRTYWHNTMGWYRQAPGKERELVAAINGGGGSTYYADSVKGRFTISRDNAKNTVYLQMNSLKPEDTAVYYCSARQGVVKGGRGYGYWGQGTQVTVSS | high polyreactivity |
| QVQLVESGGGLVHAGGSLRLSCAASGITFKWNDMGWYRQAPGKEREFVAAITGSTGSTFYADSVKGRFTISRDNAKNTVYLQMNSLKPEDTAVYYCAAGPWFYYWGQGTQVTVSS | low polyreactivity |
| QVQLVESGGGLVQAGGSLRLSCAASGRIFRRYAMGWYRQAPGKERELVAAISWSGGATYYADSVKGRFTISRDNAKNTVYLQMNSLKPEDTAVYYCAALRYQQCRAYDYWGQGTLVTVSS | high polyreactivity |
| QVQLVESGGGLVQAGGSLRLSCAASGFTFSTNAMGWYRPAPGKERELVAAISPDGGTYYADSVKGRFTISRDNAKNTVYLQMNSLIPEDTAVYYCAAVWGRGVWDLYDYWGQGTQVTVSS | low polyreactivity |
| QVQLVESGGGLVQAGGSLRLSCAASGYTFSPNDMGWYRQAPGKERELVAAMTSSVGSTYYADSVKGRFTISRDNAKNTVFLQMNSLKPEDTAVFYCAADTWYLGYPDFWLDYWGQGTQVTVSS | low polyreactivity |
| QVQLVESGGGLVQAGGSLRLSCAATGSTLVPNAMGWYRQAPGKERELVAAITRGTITHYADSVKGRFTISRDNAKNTVYVQMNSLKPEDTAVYYCNADVSLDDYDYWGQGTQVTVSS | low polyreactivity |
| QVQLVESGGGLVQAGGSLRLSCAASGRTFWGNAMGWYRQAPGKERELVAAIRRGGRTNYADSVKGRFTISRDNAKNTVYLQMNSLKPEDTAVYYCNALYAWSWPRGYDYWGQGTQVTVSS | high polyreactivity |
| QVQLVESGGGLVQAGGSLRLSCAASGFTLGSYAMGWYRQAPGKDRELVARISSDGSTNYADSVKGRFTISRDNAKNTVYLQMNSLKPEDTAVYYCAADFTYYDSPYRDYNYESWGQGAQVTVSS | low polyreactivity |
| QVQLVESGGGLVQAGGSLSLSCAASGLTFYKNAMGWYRQAPGKERELVAVISSSGGSTYYADSVKGRFTISRDHAKNTVYLQMNSLKPEDTAVYYCARDLYTEYRWGRLTYDYWGQGTQVTVSS | low polyreactivity |
| QVHLVESGGGLVQAGGSLRLSCAASGRIFSRNVMGWYRQAPGKERELVAAISSSGSTYADSVKGRFTISRDNAKNTVYLQMNSLKPEDTAVYYCAAVIYLWGQGTQVTVSS | high polyreactivity |
| QVQLVESCGGIVQAGVSLRLSCAASGSIFGIYAMGWYRQAPGKERELVAAIDSSGTSTYYADSVKGRFTISRDNEKNTVYLQMNSLKPEDTAVNSSAAYHRISKNNYWGQGTEVTVSS | low polyreactivity |
| QVQLEESGGRLVQAGGRLRLNCAASGLTFNTNSMGWYRKAPGKERELVAAISRGGGSTYYADSVKGRFTISRDNAKNSVYLQMNSLKPEDTAVYYCNAEKSASYLLYDYWGQGTLVTVSS | high polyreactivity |
| QVQLVESGGGLVQAGGSLRLSCAASGRTFIVNAMAWYRQAPGKERELVAAISSGGSTNYADSVKGRFTISRDNAKNTVYLQMNSLKPEDTAVYYCASRLRGPRSYWSWYGYWGQGTQVTVSS | high polyreactivity |
| QVQLVESGGGLVQAGGSLRLSCAASGLTFVDYAMGWYRPAPGKERELVAGISYSGGSTYYADSVKGRFTISRDNAKNTVYLQMNSLKPEDTAVYYCAAKYRRPRYGYWGQGTQVTVSS | high polyreactivity |
| QVQLVESGGGLVQAGGSLRLSCAASGSNFVRNTMGWYRQAPGKESELVATISSGGRTNYADSVKGRFTISRDNAKNTVYLQLNSLKPEDTAVYYCNRPRWYGGSPYYYWGQGTQVTVSS | high polyreactivity |
| QVQLVESGGGLVQAGGSLRLSCAASGRIFFDYAMGWYRQAPGKERELVADISYNGGSTNYADSVKGRFTISRDNAKNTVYLQMNSLKPEDTAVYYCNRAFVPVYDLDYYWGQGTQVTVSS | low polyreactivity |
| QVQLVETGGGLVQAGGSLRLSCAASGSTFVRYTMGWYRQAPGKERELVAAISQRDSRTYYADSVKGRFTISRDNAKNTVYLQMNSLKPEDTAVYYCAARSWWYRSATYNYWGQGTQVTVSS | high polyreactivity |

Source: the nanobody polyreactivity screen of Harvey et al. (2022)
